Test results as given in patent US20200131274A1 (CRESCENDO BIOLOGICS, published 2020).
Residue numbers refer to the chain shown, from its start. Names and notes keep the numbering of the source.

B1: single VH domain antibody 2.18 (VHH)
VHH: EVQLVESGGGVVQPGRSLRLSCAASGFSFSGYGQHWVRQAPGKGLEWVAYISYDASNKYYADNVKGRFTISRDNSKNTLYLQMNSLRAEDTAVYYCAKDPAWGLRLGESSSYDFDIWGQGTMVTVSS
notes: Human single VH domain antibody (Humabody); C-terminal His tag, residues not tied
B2: single VH domain antibody 2.14 (VHH)
VHH: B1 VHH with Q34V
notes: as for B1
B3: single VH domain antibody 1.10 (VHH)
VHH: EVQLLESGGGLVQPGGSLRLSCAASGFSFSSYALSWVRQAPGKGLEWVSSIGENNATTDYADFVKGRFTISRDNSKNTLYLQMNSLRVEDTAVYYCVKDGVHWGQGTLVTVSS
notes: Human single VH domain antibody (Humabody)
B4: single VH domain antibody 1.14 (VHH)
VHH: B3 VHH with F63V
notes: as for B3
B5: single VH domain antibody 1.13 (VHH)
VHH: B3 VHH with A56H, D62A, F63D
notes: as for B3
B6: HiPEG A-His6 val-cit-PAB-MMAE (VHH)
VHH: B1 VHH with Q34M, A55G, N63S
modifications: HiPEG val-cit-PAB-MMAE attached via the C-terminal His6-tag, DAR 1
B7: HiPEG A-2-B-His6 val-cit-PAB-MMAE (bispecific antibody)
chain: EVQLVESGGGVVQPGRSLRLSCAASGFSFSGYGMHWVRQAPGKGLEWVAYISYDGSNKYYADSVKGRFTISRDNSKNTLYLQMNSLRAEDTAVYYCAKDPAWGLRLGESSSYDFDIWGQGTMVTVSSGGGGSGGGGSGGGGSGGGGSGGGGSGGGGSEVQLLESGGGLVQPGGSLRLSCAASGFSFSSYAMSWVRQAPGKGLEWVSSIGENDGTTDYADSVKGRFTISRDNSKSMLYLQMNSLRVEDTAVYYCVKDGVHWGQGTLVTVSSAAAHHHHHH
modifications: HiPEG val-cit-PAB-MMAE attached via the C-terminal His6-tag, DAR 1
B8: HiPEG A-2-A-His6 val-cit-PAB-MMAE (VHH)
chain: EVQLVESGGGVVQPGRSLRLSCAASGFSFSGYGMHWVRQAPGKGLEWVAYISYDGSNKYYADSVKGRFTISRDNSKNTLYLQMNSLRAEDTAVYYCAKDPAWGLRLGESSSYDFDIWGQGTMVTVSSGGGGSGGGGSGGGGSGGGGSGGGGSGGGGSEVQLVESGGGVVQPGRSLRLSCAASGFSFSGYGMHWVRQAPGKGLEWVAYISYDGSNKYYADSVKGRFTISRDNSKNTLYLQMNSLRAEDTAVYYCAKDPAWGLRLGESSSYDFDIWGQGTMVTVSSAAAHHHHHH
modifications: HiPEG val-cit-PAB-MMAE attached via the C-terminal His6-tag, DAR 1
B9: HiPEG B-2-B-His6 val-cit-PAB-MMAE (VHH)
chain: EVQLLESGGGLVQPGGSLRLSCAASGFSFSSYAMSWVRQAPGKGLEWVSSIGENDGTTDYADSVKGRFTISRDNSKSMLYLQMNSLRVEDTAVYYCVKDGVHWGQGTLVTVSSGGGGSGGGGSGGGGSGGGGSGGGGSGGGGSEVQLLESGGGLVQPGGSLRLSCAASGFSFSSYAMSWVRQAPGKGLEWVSSIGENDGTTDYADSVKGRFTISRDNSKSMLYLQMNSLRVEDTAVYYCVKDGVHWGQGTLVTVSS
modifications: HiPEG val-cit-PAB-MMAE attached via the C-terminal His6-tag, DAR 0.7
B10: HiPEG B-1-A-His6 val-cit-PAB-MMAE (bispecific antibody)
chain: EVQLLESGGGLVQPGGSLRLSCAASGFSFSSYAMSWVRQAPGKGLEWVSSIGENDGTTDYADSVKGRFTISRDNSKSMLYLQMNSLRVEDTAVYYCVKDGVHWGQGTLVTVSSGGGGSGGGGSEVQLVESGGGVVQPGRSLRLSCAASGFSFSGYGMHWVRQAPGKGLEWVAYISYDGSNKYYADSVKGRFTISRDNSKNTLYLQMNSLRAEDTAVYYCAKDPAWGLRLGESSSYDFDIWGQGTMVTVSS
modifications: HiPEG val-cit-PAB-MMAE attached via the C-terminal His6-tag, DAR 1
B11: HiPEG B-His6 val-cit-PAB-MMAE (VHH)
VHH: B3 VHH with L34M, N55D, A56G, F63S, N77S, T78M
modifications: HiPEG val-cit-PAB-MMAE attached via the C-terminal His6-tag, DAR 0.9
B12: 1.11-6GS-2.22 (bispecific antibody)
chain: EVQLLESGGGLVQPGGSLRLSCAASGFSFSSYALSWVRQAPGKGLEWVSSIGENNDTTDYADNVKGRFTISRDNSKNTLYLQMNSLRVEDTAVYYCVKDGVHWGQGTLVTVSSGGGGSGGGGSGGGGSGGGGSGGGGSGGGGSEVQLVESGGGVVQPGRSLRLSCAASGFSFSGYGTHWVRQAPGKGLEWVAYISYDGSNKYYAAPVKGRFTISRDNSKNTLYLQMNSLRAEDTAVYYCAKDAAWGLRLGESSSYDFDIWGQGTMVTVSS
notes: linker (G4S)6; also called 1.11-2.22; 1.11-6GS-2.22His
B13: single VH domain antibody 2.12 (VHH)
VHH: B1 VHH with Q34M, A55K, N63K
notes: as for B1
B14: single VH domain antibody 2.13 (VHH)
VHH: B1 VHH with Q34L
notes: as for B1
B15: single VH domain antibody 14.1 (VHH)
VHH: EVQLVESGGEVKKPGASVKVSCKASGYTFTSYDINWVRQATGQGLEWMGWMNPNSGNTGYAQKFQGRVTMTRNTSISTAYMELSSLRSEDTAVYYCARGNGPGITGTTDYWGQGTLVTVSS

The binders below were run against T1, cynomolgus PSMA, full-length, on CHO cells (cynomolgus, UniProt A0A2K5VNZ0 1-750) (assay: FMAT direct cell binding, CHO cyno PSMA cells).
T1 construct: whole, on cells; also called cynoPSMA; cyno PSMA
B1 showed an EC50 of 0.337 nM. B2 was tested, and the EC50 was 0.427 nM. In the case of B3, the EC50 is reported as 0.152 nM. Work on B4 yielded an EC50 of 0.145 nM. B5 gave an EC50 of 0.115 nM.

The binders below were run against T2, human prostate specific membrane antigen (PSMA), full-length, on cells (human, UniProt Q04609 1-750) (assay: cell-based or functional assay).
T2 sequence (Q04609 whole entry): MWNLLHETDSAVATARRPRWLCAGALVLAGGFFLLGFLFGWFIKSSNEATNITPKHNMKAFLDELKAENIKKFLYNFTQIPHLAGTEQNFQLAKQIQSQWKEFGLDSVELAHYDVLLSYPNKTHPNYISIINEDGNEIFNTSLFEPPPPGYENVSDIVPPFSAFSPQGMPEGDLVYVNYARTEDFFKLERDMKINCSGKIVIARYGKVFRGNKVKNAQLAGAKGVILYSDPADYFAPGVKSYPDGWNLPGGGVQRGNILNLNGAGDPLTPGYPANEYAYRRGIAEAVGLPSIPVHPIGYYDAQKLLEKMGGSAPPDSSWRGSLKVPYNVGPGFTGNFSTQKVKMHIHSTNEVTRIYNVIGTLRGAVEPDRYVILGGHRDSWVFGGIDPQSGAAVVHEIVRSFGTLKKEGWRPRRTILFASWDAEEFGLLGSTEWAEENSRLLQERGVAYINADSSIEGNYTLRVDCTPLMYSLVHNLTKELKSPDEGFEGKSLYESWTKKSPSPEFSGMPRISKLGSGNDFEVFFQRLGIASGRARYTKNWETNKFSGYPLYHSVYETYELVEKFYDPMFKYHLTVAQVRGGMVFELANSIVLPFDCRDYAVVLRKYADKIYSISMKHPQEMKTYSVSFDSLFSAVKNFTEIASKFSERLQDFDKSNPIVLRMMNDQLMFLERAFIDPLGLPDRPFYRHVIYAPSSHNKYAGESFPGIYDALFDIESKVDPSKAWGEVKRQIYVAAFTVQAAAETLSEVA
B6 was tested, and the “IC50 (nM), cytotoxicity on DU145 PSMA cells, 72 h” value (shortened to “IC50 (nM), cytotoxicity”) was 0.55 nM and the “IC50 (toxin) nM, DU145 PSMA cells, 72 h” value was 0.55 nM. With B7 the “IC50 (nM), cytotoxicity” value was 0.29 nM and the “IC50 (toxin) nM, DU145 PSMA cells, 72 h” value was 0.29 nM. For B8, the “IC50 (nM), cytotoxicity” value was 0.19 nM and the “IC50 (toxin) nM, DU145 PSMA cells, 72 h” value was 0.19 nM. In the case of B9, the “IC50 (nM), cytotoxicity” value is reported as 21 nM and the “IC50 (toxin) nM, DU145 PSMA cells, 72 h” value is reported as 14.7 nM. In the case of B10, the “IC50 (nM), cytotoxicity” value is reported as 0.1 nM and the “IC50 (toxin) nM, DU145 PSMA cells, 72 h” value is reported as 0.1 nM. For B11, the “IC50 (nM), cytotoxicity” value was 4.1 nM and the “IC50 (toxin) nM, DU145 PSMA cells, 72 h” value was 3.69 nM.

Each binder was assayed against T2, human prostate specific membrane … (assay: FMAT direct cell binding, human PSMA-CHO cells).
B12 gave an EC50 of 0.219 nM.

These binders were tested against T3, recombinant human PSMA (R&D, cat. no. 4234-ZN) (human, UniProt Q04609 44-750) (assay: Octet RED384 BLI, PSMA on sensor, VH series from 0.375 ug/ml).
T3 construct: Bought protein; also called rhPSMA; Recombinant PMSA
T3 sequence (Q04609 44-750 limits assumed): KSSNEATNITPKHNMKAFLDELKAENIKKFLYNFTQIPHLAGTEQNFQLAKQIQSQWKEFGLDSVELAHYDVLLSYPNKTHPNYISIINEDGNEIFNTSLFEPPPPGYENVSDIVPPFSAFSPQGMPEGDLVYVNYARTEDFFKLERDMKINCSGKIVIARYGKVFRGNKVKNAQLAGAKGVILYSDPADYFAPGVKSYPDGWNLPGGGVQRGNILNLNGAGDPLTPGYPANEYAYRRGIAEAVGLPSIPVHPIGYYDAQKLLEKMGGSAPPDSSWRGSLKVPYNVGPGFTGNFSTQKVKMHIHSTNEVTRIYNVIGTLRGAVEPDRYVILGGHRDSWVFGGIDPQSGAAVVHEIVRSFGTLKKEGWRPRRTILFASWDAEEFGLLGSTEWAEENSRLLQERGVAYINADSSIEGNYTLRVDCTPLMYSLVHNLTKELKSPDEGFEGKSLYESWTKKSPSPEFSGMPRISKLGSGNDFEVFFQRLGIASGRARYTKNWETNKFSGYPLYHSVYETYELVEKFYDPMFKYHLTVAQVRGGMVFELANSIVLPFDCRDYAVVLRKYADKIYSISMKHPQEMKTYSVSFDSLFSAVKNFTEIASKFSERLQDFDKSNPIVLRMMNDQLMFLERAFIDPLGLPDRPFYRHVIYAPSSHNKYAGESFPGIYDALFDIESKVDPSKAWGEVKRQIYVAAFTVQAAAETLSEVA
With B3 the Kd was 0.67 nM and the koff was 0.000418 s⁻¹. B4 showed a Kd of 0.46 nM and a koff of 0.000335 s⁻¹.

Biological target: T3, recombinant human PSMA (R&D, cat. no. …)
Experiment: as above
Remark: another data set of the same source
B13 was tested, and the Kd was 1.56 nM and the koff was 0.00157 s⁻¹. With B14 the Kd was 0.99 nM and the koff was 0.000743 s⁻¹.

These binders were tested against T2, human prostate specific membrane … (assay: FMAT direct cell binding, DU145 PSMA cells).
Work on B1 yielded an EC50 of 0.25 nM. In the case of B2, the EC50 is reported as 0.202 nM. For B3, the EC50 was 0.067 nM. B4 was tested, and the EC50 was 0.052 nM. With B5 the EC50 was 0.0456 nM.

The binders below were run against T2, human prostate specific membrane … (assay: FMAT direct cell binding, CHO human PSMA cells).
For B1, the EC50 was 0.104 nM. Binder B2 has an EC50 of 0.11 nM. In the case of B3, the EC50 is reported as 0.0718 nM. B4 was tested, and the EC50 was 0.0588 nM. B5 gave an EC50 of 0.0513 nM.

What follows are binders tested against T1, cynomolgus PSMA, full-length, on CHO … (assay: cell-based or functional assay).
In the case of B13, the “His-ZAP cell killing, cyno PSMA EC50” value is reported as 0.091 nM. In the case of B14, the “His-ZAP cell killing, cyno PSMA EC50” value is reported as 0.08 nM. In the case of B12, the “His-ZAP cell killing, cyno PSMA Average EC50” value is reported as 0.0095 nM. For B3, the “His-ZAP cell killing, cyno PSMA EC50” value was 1.3 nM. B4 was tested, and the “His-ZAP cell killing, cyno PSMA EC50” value was 0.79 nM.

Biological target: T2, human prostate specific membrane …
Experiment: cell-based or functional assay
Remark: another data set of the same source
With B13 the “His-ZAP cell killing, human PSMA Average EC50” value was 0.016 nM. For B14, the “His-ZAP cell killing, human PSMA Average EC50” value was 0.027 nM. B12 was tested, and the “His-ZAP cell killing, human PSMA Average EC50” value was 0.01 nM. In the case of B3, the “His-ZAP cell killing, human PSMA Average EC50” value is reported as 0.021 nM. With B4 the “His-ZAP cell killing, human PSMA Average EC50” value was 0.017 nM.

Biological target: T2, human prostate specific membrane …
Experiment: cell-based or functional assay
Remark: another data set of the same source
For B6, the “IC50 Toxin (nM), DU145 PSMA cells, 48 h” value was 1.16 nM, the “Mean IC50, cytotoxicity on DU145 PSMA cells, 48 h” value (“Mean IC50, cytotoxicity” below) was 1.2 nM and the “Mean Max % Cell kill, DU145 PSMA cells, 48 h” value (from here on “Mean Max % Cell kill”) was 74%. B7 was tested, and the “IC50 Toxin (nM), DU145 PSMA cells, 48 h” value was 0.37 nM, the “Mean IC50, cytotoxicity” value was 0.37 nM and the “Mean Max % Cell kill” value was 78%. B8 was tested, and the “IC50 Toxin (nM), DU145 PSMA cells, 48 h” value was 0.32 nM, the “Mean IC50, cytotoxicity” value was 0.32 nM and the “Mean Max % Cell kill” value was 57%. For B9, the “IC50 Toxin (nM), DU145 PSMA cells, 48 h” value was 12.6 nM and the “Mean IC50, cytotoxicity” value was 18 nM. For B10, the “IC50 Toxin (nM), DU145 PSMA cells, 48 h” value was 0.13 nM, the “Mean IC50, cytotoxicity” value was 0.13 nM and the “Mean Max % Cell kill” value was 79%. B11 was tested, and the “IC50 Toxin (nM), DU145 PSMA cells, 48 h” value was 2.43 nM, the “Mean IC50, cytotoxicity” value was 2.7 nM and the “Mean Max % Cell kill” value was 73%.

What follows are binders tested against T2, human prostate specific membrane … (assay: FMAT direct cell binding, LNCap cells).
B1 was tested, and the EC50 was 0.0354 nM. In the case of B2, the EC50 is reported as 0.0332 nM. B3 was tested, and the EC50 was 0.133 nM. B4 showed an EC50 of 0.0833 nM. With B5 the EC50 was 0.0386 nM.

The binders below were run against T3, recombinant human PSMA (R&D, cat. no. …) (assay: Octet RED384 BLI, PSMA on sensor, VH purified from periplasmic extracts).
In the case of B15, the Kd is reported as 17 nM and the koff is reported as 0.0011 s⁻¹.

Biological target: T2, human prostate specific membrane …
Experiment: cell-based or functional assay
Remark: another data set of the same source
In the case of B13, the “pHrodo Green internalization assay, human PSMA Average EC50 (M)” value (shortened to “pHrodo Green internalization assay”) is reported as 5.3e-10 M. For B14, the “pHrodo Green internalization assay” value was 5.8e-10 M. In the case of B3, the “pHrodo Green internalization assay” value is reported as 6.4e-10 M. In the case of B4, the “pHrodo Green internalization assay” value is reported as 4.4e-10 M.
